Results from US20190338009A1 (ZEALAND PHARMA A S, published 2019).
One block for each binder: values may come before it. Square brackets hold non-standard residues; d marks the D form. Aib = CC(C)(N)C(=O)O

Legend:
[1] = biological target: T1, human GLP-2 receptor (hGLP2-R) (human, UniProt O95838 1-553); experiment: cell-based or functional assay
T1 sequence (looked up): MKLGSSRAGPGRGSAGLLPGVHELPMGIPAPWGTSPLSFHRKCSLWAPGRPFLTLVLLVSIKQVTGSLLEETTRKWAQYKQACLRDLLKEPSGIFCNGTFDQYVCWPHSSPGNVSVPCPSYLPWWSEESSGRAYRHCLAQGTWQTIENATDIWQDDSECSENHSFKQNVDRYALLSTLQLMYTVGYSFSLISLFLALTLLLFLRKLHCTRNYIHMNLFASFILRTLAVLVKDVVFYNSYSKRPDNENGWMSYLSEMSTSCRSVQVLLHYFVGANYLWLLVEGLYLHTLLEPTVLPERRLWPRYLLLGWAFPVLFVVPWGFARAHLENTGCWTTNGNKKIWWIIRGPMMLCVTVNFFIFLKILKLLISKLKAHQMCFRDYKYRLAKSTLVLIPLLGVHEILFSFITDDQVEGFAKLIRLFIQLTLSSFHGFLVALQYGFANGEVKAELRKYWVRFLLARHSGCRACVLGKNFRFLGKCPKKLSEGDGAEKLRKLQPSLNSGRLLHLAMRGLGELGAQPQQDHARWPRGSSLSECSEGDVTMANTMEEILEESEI

[2] = biological target: human glucagon-like peptide 1 receptor (GLP-1R) (human, UniProt P43220 24-463); experiment: cell-based or functional assay

Binder: H-HGEGTFTSELATILDEQAARDFIAWLIAHKITD-OH [Compound 38]
EC50 GLP-2 (nM); cAMP AlphaScreen, HEK293 cells expressing human GLP-2R [1]: 0.043 nM | EC50 GLP-1 (nM); cAMP AlphaScreen, HEK293 cells expressing human GLP-1R [2]: 0.008 nM

B1: Compound 36 (peptide)
peptide: H-H[Aib]EGTFTSELATILDEQAARDFINWLKSYKITD-OH
SMILES: CC[C@H](C)[C@H](NC(=O)[C@H](Cc1ccccc1)NC(=O)[C@H](CC(=O)O)NC(=O)[C@H](CCCNC(=N)N)NC(=O)[C@H](C)NC(=O)[C@H](C)NC(=O)[C@H](CCC(N)=O)NC(=O)[C@H](CCC(=O)O)NC(=O)[C@H](CC(=O)O)NC(=O)[C@H](CC(C)C)NC(=O)[C@@H](NC(=O)[C@@H](NC(=O)[C@H](C)NC(=O)[C@H](CC(C)C)NC(=O)[C@H](CCC(=O)O)NC(=O)[C@H](CO)NC(=O)[C@@H](NC(=O)[C@H](Cc1ccccc1)NC(=O)[C@@H](NC(=O)CNC(=O)[C@H](CCC(=O)O)NC(=O)C(C)(C)NC(=O)[C@@H](N)Cc1c[nH]cn1)[C@@H](C)O)[C@@H](C)O)[C@@H](C)O)[C@@H](C)CC)C(=O)N[C@@H](CC(N)=O)C(=O)N[C@@H](Cc1c[nH]c2ccccc12)C(=O)N[C@@H](CC(C)C)C(=O)N[C@@H](CCCCN)C(=O)N[C@@H](CO)C(=O)N[C@@H](Cc1ccc(O)cc1)C(=O)N[C@@H](CCCCN)C(=O)N[C@H](C(=O)N[C@H](C(=O)N[C@@H](CC(=O)O)C(=O)O)[C@@H](C)O)[C@@H](C)CC
EC50 GLP-2 (nM); cAMP AlphaScreen, HEK293 cells expressing human GLP-2R [1]: 0.11 nM | EC50 GLP-1 (nM); cAMP AlphaScreen, HEK293 cells expressing human GLP-1R [2]: 0.007 nM

B2: Compound 35 (peptide)
peptide: H-H[Aib]EGTFTSELATILDEQAARDFINWLKAHKITD-OH
SMILES: CC[C@H](C)[C@H](NC(=O)[C@H](Cc1ccccc1)NC(=O)[C@H](CC(=O)O)NC(=O)[C@H](CCCNC(=N)N)NC(=O)[C@H](C)NC(=O)[C@H](C)NC(=O)[C@H](CCC(N)=O)NC(=O)[C@H](CCC(=O)O)NC(=O)[C@H](CC(=O)O)NC(=O)[C@H](CC(C)C)NC(=O)[C@@H](NC(=O)[C@@H](NC(=O)[C@H](C)NC(=O)[C@H](CC(C)C)NC(=O)[C@H](CCC(=O)O)NC(=O)[C@H](CO)NC(=O)[C@@H](NC(=O)[C@H](Cc1ccccc1)NC(=O)[C@@H](NC(=O)CNC(=O)[C@H](CCC(=O)O)NC(=O)C(C)(C)NC(=O)[C@@H](N)Cc1c[nH]cn1)[C@@H](C)O)[C@@H](C)O)[C@@H](C)O)[C@@H](C)CC)C(=O)N[C@@H](CC(N)=O)C(=O)N[C@@H](Cc1c[nH]c2ccccc12)C(=O)N[C@@H](CC(C)C)C(=O)N[C@@H](CCCCN)C(=O)N[C@@H](C)C(=O)N[C@@H](Cc1c[nH]cn1)C(=O)N[C@@H](CCCCN)C(=O)N[C@H](C(=O)N[C@H](C(=O)N[C@@H](CC(=O)O)C(=O)O)[C@@H](C)O)[C@@H](C)CC
EC50 GLP-2 (nM); cAMP AlphaScreen, HEK293 cells expressing human GLP-2R [1]: 0.048 nM | EC50 GLP-1 (nM); cAMP AlphaScreen, HEK293 cells expressing human GLP-1R [2]: 0.006 nM

B5: Compound 37 (peptide)
peptide: H-H[Aib]EGTFTSELATILDEQAARDFINWLKEQKITD-OH
SMILES: CC[C@H](C)[C@H](NC(=O)[C@H](Cc1ccccc1)NC(=O)[C@H](CC(=O)O)NC(=O)[C@H](CCCNC(=N)N)NC(=O)[C@H](C)NC(=O)[C@H](C)NC(=O)[C@H](CCC(N)=O)NC(=O)[C@H](CCC(=O)O)NC(=O)[C@H](CC(=O)O)NC(=O)[C@H](CC(C)C)NC(=O)[C@@H](NC(=O)[C@@H](NC(=O)[C@H](C)NC(=O)[C@H](CC(C)C)NC(=O)[C@H](CCC(=O)O)NC(=O)[C@H](CO)NC(=O)[C@@H](NC(=O)[C@H](Cc1ccccc1)NC(=O)[C@@H](NC(=O)CNC(=O)[C@H](CCC(=O)O)NC(=O)C(C)(C)NC(=O)[C@@H](N)Cc1c[nH]cn1)[C@@H](C)O)[C@@H](C)O)[C@@H](C)O)[C@@H](C)CC)C(=O)N[C@@H](CC(N)=O)C(=O)N[C@@H](Cc1c[nH]c2ccccc12)C(=O)N[C@@H](CC(C)C)C(=O)N[C@@H](CCCCN)C(=O)N[C@@H](CCC(=O)O)C(=O)N[C@@H](CCC(N)=O)C(=O)N[C@@H](CCCCN)C(=O)N[C@H](C(=O)N[C@H](C(=O)N[C@@H](CC(=O)O)C(=O)O)[C@@H](C)O)[C@@H](C)CC
EC50 GLP-2 (nM); cAMP AlphaScreen, HEK293 cells expressing human GLP-2R [1]: 0.16 nM | EC50 GLP-1 (nM); cAMP AlphaScreen, HEK293 cells expressing human GLP-1R [2]: 0.007 nM

B6: Compound 34 (peptide)
peptide: H-H[Aib]EGTFTSELATILDEQAARDFISWLIAHKITD-OH
SMILES: CC[C@H](C)[C@H](NC(=O)[C@H](CC(C)C)NC(=O)[C@H](Cc1c[nH]c2ccccc12)NC(=O)[C@H](CO)NC(=O)[C@@H](NC(=O)[C@H](Cc1ccccc1)NC(=O)[C@H](CC(=O)O)NC(=O)[C@H](CCCNC(=N)N)NC(=O)[C@H](C)NC(=O)[C@H](C)NC(=O)[C@H](CCC(N)=O)NC(=O)[C@H](CCC(=O)O)NC(=O)[C@H](CC(=O)O)NC(=O)[C@H](CC(C)C)NC(=O)[C@@H](NC(=O)[C@@H](NC(=O)[C@H](C)NC(=O)[C@H](CC(C)C)NC(=O)[C@H](CCC(=O)O)NC(=O)[C@H](CO)NC(=O)[C@@H](NC(=O)[C@H](Cc1ccccc1)NC(=O)[C@@H](NC(=O)CNC(=O)[C@H](CCC(=O)O)NC(=O)C(C)(C)NC(=O)[C@@H](N)Cc1c[nH]cn1)[C@@H](C)O)[C@@H](C)O)[C@@H](C)O)[C@@H](C)CC)[C@@H](C)CC)C(=O)N[C@@H](C)C(=O)N[C@@H](Cc1c[nH]cn1)C(=O)N[C@@H](CCCCN)C(=O)N[C@H](C(=O)N[C@H](C(=O)N[C@@H](CC(=O)O)C(=O)O)[C@@H](C)O)[C@@H](C)CC
EC50 GLP-2 (nM); cAMP AlphaScreen, HEK293 cells expressing human GLP-2R [1]: 0.049 nM | EC50 GLP-1 (nM); cAMP AlphaScreen, HEK293 cells expressing human GLP-1R [2]: 0.005 nM

More lines, now with the values ahead:

EC50 GLP-2 (nM); cAMP AlphaScreen, HEK293 cells expressing human GLP-2R [1]: 0.05 nM | EC50 GLP-1 (nM); cAMP AlphaScreen, HEK293 cells expressing human GLP-1R [2]: 1.4 nM
Binder: H-HGEGSFSSELATILDEQAARDFIAWLIQHKITD-NH2 [Compound 40]

EC50 GLP-2 (nM); cAMP AlphaScreen, HEK293 cells expressing human GLP-2R [1]: 0.026 nM | EC50 GLP-1 (nM); cAMP AlphaScreen, HEK293 cells expressing human GLP-1R [2]: 0.078 nM
B3: Compound 41 (peptide)
peptide: H-H[Aib]EGSFSSELATILDEQAARDFIAWLIQHKITD-OH
SMILES: CC[C@H](C)[C@H](NC(=O)[C@H](Cc1ccccc1)NC(=O)[C@H](CC(=O)O)NC(=O)[C@H](CCCNC(=N)N)NC(=O)[C@H](C)NC(=O)[C@H](C)NC(=O)[C@H](CCC(N)=O)NC(=O)[C@H](CCC(=O)O)NC(=O)[C@H](CC(=O)O)NC(=O)[C@H](CC(C)C)NC(=O)[C@@H](NC(=O)[C@@H](NC(=O)[C@H](C)NC(=O)[C@H](CC(C)C)NC(=O)[C@H](CCC(=O)O)NC(=O)[C@H](CO)NC(=O)[C@H](CO)NC(=O)[C@H](Cc1ccccc1)NC(=O)[C@H](CO)NC(=O)CNC(=O)[C@H](CCC(=O)O)NC(=O)C(C)(C)NC(=O)[C@@H](N)Cc1c[nH]cn1)[C@@H](C)O)[C@@H](C)CC)C(=O)N[C@@H](C)C(=O)N[C@@H](Cc1c[nH]c2ccccc12)C(=O)N[C@@H](CC(C)C)C(=O)N[C@H](C(=O)N[C@@H](CCC(N)=O)C(=O)N[C@@H](Cc1c[nH]cn1)C(=O)N[C@@H](CCCCN)C(=O)N[C@H](C(=O)N[C@H](C(=O)N[C@@H](CC(=O)O)C(=O)O)[C@@H](C)O)[C@@H](C)CC)[C@@H](C)CC

EC50 GLP-2 (nM); cAMP AlphaScreen, HEK293 cells expressing human GLP-2R [1]: 0.96 nM | EC50 GLP-1 (nM); cAMP AlphaScreen, HEK293 cells expressing human GLP-1R [2]: 0.03 nM
B4: Compound 39 (peptide)
peptide: H-H[Aib]EGTFSSELSTILEEQASREFIAWLIAHKITE-OH
SMILES: CC[C@H](C)[C@H](NC(=O)[C@H](CC(C)C)NC(=O)[C@H](Cc1c[nH]c2ccccc12)NC(=O)[C@H](C)NC(=O)[C@@H](NC(=O)[C@H](Cc1ccccc1)NC(=O)[C@H](CCC(=O)O)NC(=O)[C@H](CCCNC(=N)N)NC(=O)[C@H](CO)NC(=O)[C@H](C)NC(=O)[C@H](CCC(N)=O)NC(=O)[C@H](CCC(=O)O)NC(=O)[C@H](CCC(=O)O)NC(=O)[C@H](CC(C)C)NC(=O)[C@@H](NC(=O)[C@@H](NC(=O)[C@H](CO)NC(=O)[C@H](CC(C)C)NC(=O)[C@H](CCC(=O)O)NC(=O)[C@H](CO)NC(=O)[C@H](CO)NC(=O)[C@H](Cc1ccccc1)NC(=O)[C@@H](NC(=O)CNC(=O)[C@H](CCC(=O)O)NC(=O)C(C)(C)NC(=O)[C@@H](N)Cc1c[nH]cn1)[C@@H](C)O)[C@@H](C)O)[C@@H](C)CC)[C@@H](C)CC)C(=O)N[C@@H](C)C(=O)N[C@@H](Cc1c[nH]cn1)C(=O)N[C@@H](CCCCN)C(=O)N[C@H](C(=O)N[C@H](C(=O)N[C@@H](CCC(=O)O)C(=O)O)[C@@H](C)O)[C@@H](C)CC
